Data taken from PMC9482650, “Quantitative fragmentomics allow affinity mapping of interactomes” (Nature Communications, 2022).

Experiments:
[1] = target: T1, LIN7C, Q9NUP9; assay: holdup assay; parameters: key: below the threshold = too weak to quantify, mostly under pKd 3.1 to 4
T1 sequence (Q9NUP9 88-185, limits assumed, looked up): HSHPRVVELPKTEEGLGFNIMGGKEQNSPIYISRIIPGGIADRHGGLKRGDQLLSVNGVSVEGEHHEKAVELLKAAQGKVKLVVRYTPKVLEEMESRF

[2] = target: T2, DFNB31_2, Q9P202; assay: holdup assay; parameters: key: below the threshold = too weak to quantify, mostly under pKd 3.1 to 4
T2 sequence (Q9P202 274-371, limits assumed, looked up): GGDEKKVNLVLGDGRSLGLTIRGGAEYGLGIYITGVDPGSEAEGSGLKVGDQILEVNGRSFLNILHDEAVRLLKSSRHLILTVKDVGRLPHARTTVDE

[3] = plain residues with an end cap or a label only (N-terminal biotin on a linker: ado-ado)
[4] = plain residues with an end cap or a label only (N-terminal biotin on a linker: ttds)
[5] = plain residues with an end cap or a label only (N-terminal biotin on a linker: ahx)
[6] = plain residues with an end cap or a label only (N-terminal biotin on a linker: gsgsgs; C-terminal amide)

Binder	pKd [1, 4]	pKd [2, 4]	pKd [1, 5]	pKd [2, 5]	also measured
RGGFGRQTQI [NCBP2L, A6PVI3]	–	–	–	–	pKd [1, 3]: 3.68; pKd [2, 3]: below the threshold
SRRPRTETQV [HPV31-E6, P17386]	3.93	below the threshold	–	–	–
VNKVWDQSSV [CIT, O14578]	below the threshold	below the threshold	–	–	–
EEPEERHTEL [CES2, O00748]	–	–	–	–	pKd [1, 3]: below the threshold; pKd [2, 3]: below the threshold
QFQYAKESYI [TAGAP, Q8N103]	4.21	4.74	–	–	–
RNCSTNDSLL [ADRB2, P07550]	–	–	below the threshold	below the threshold	–
DPRNTQTSQI [ABRAXAS2, Q15018]	3.66	3.62	–	–	–
KTSAHHATFV [RGS12, O14924]	–	–	below the threshold	below the threshold	–
TEEEVQDTRL [CFTR, P13569]	below the threshold	below the threshold	–	–	–
QGRWDHETIV [TMEM215, Q68D42]	–	–	3.88	below the threshold	–
LHLHGTGIQV [EPHA7, Q15375]	–	–	–	–	pKd [1, 3]: 4.08; pKd [2, 3]: below the threshold
CNTVTVETVV [MAS1, P04201]	3.64	below the threshold	–	–	–
SSSNSEDTEM [NHERF3, Q5T2W1]	–	–	below the threshold	below the threshold	–
SPLHSLETSL [ATP2B1, P20020]	4.45	below the threshold	–	–	–
EDEDEQVSAV [RAPGEF2, Q9Y4G8]	–	–	below the threshold	below the threshold	–
GGPKEEESPV [SLC16A1, P53985]	below the threshold	below the threshold	–	–	–
SVVSERISSV [HTR2C, P28335]	–	–	–	–	pKd [1, 3]: below the threshold; pKd [2, 3]: below the threshold

Binder	pKd [1, 4]	pKd [2, 4]	pKd [1, 5]	pKd [2, 5]	also measured
HSGSYLVTSV [APC, P25054]	–	–	3.72	below the threshold	–
GIFPTLTSPL [SHROOM3, Q8TF72]	–	–	below the threshold	below the threshold	–
GKKSVKHSKI [ACOT6, Q3I5F7]	–	–	–	–	pKd [1, 3]: 3.48; pKd [2, 3]: 3.81
FVHPILQSAV [PRKCA, P17252]	–	–	–	–	pKd [1, 3]: 3.52; pKd [2, 3]: below the threshold
PKRPFVESNV [TANC2, Q9HCD6]	below the threshold	below the threshold	–	–	–
TIVSWPGTFL [LNX1, Q8TBB1]	–	–	3.47	below the threshold	–
NQLAWFDTDL [CTNNB1, P35222]	below the threshold	below the threshold	–	–	–
EDLTKNHDEL [RCN1, Q15293]	–	–	–	–	pKd [1, 3]: below the threshold; pKd [2, 3]: below the threshold
LCKSHAFSHV [PDLIM7, Q9NR12;Q9NR12-1]	–	–	below the threshold	below the threshold	–
ELIQDTSTSFSTTREW [ARAP3_int, Q8WWN8]	–	–	–	–	pKd [1, 6]: 4.11; pKd [2, 6]: below the threshold
TETASVCTKV [SLC23A1, Q9UHI7]	–	–	–	–	pKd [1, 3]: 4.08; pKd [2, 3]: below the threshold
QKNKDKEYYV [NRXN3_rs746444206, Q9Y4C0]	–	–	–	–	pKd [1, 3]: 4.08; pKd [2, 3]: below the threshold
KKNKDKEYYV [NRXN1, Q9ULB1]	–	–	below the threshold	below the threshold	–
GFGEERESIL [KIDINS220, Q9ULH0]	–	–	–	–	pKd [1, 3]: 3.63; pKd [2, 3]: below the threshold
EKLSSIESDV [GRIN2B, Q13224]	–	–	below the threshold	below the threshold	–
LDSQIQETSI [MAP4, P27816]	3.68	below the threshold	–	–	–
LCALPKVTTV [AGMAT, Q9BSE5]	4.38	3.77	–	–	–
